# The supplement of paper PMC9112550, “Optimization of the antimicrobial peptide Bac7 by deep mutational scanning” (BMC Biology, 2022)
# Tested on: Escherichia coli TOP10
# Assay: shrunken log2 fold change of peptide-encoding DNA abundance (4.5 h post-induction vs induction); higher = less antimicrobial activity (less host growth inhibition)
# Conditions: time post-induction: 4.5 h; library: site-saturation at positions 5, 18, 19, 20
# 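Also: peptides expressed intracellularly from a pBAD plasmid library in pooled LB shake-flask culture, induced with 0.3% L-arabinose, DNA abundance read by NGS, three biological replicates, DESeq2 with apeglm shrinkage.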
row,Sequence,shrunken log2 fold change
1,RRIRIRPPRLPRPRPRPGKTPRP,-0.126
2,RRIRERPPRLPRPRPRPITWPRP,0.0224
3,RRIRPRPPRLPRPRPRPFCFPRP,0.337
4,RRIRERPPRLPRPRPRPGLTPRP,-0.174
5,RRIRWRPPRLPRPRPRPMAIPRP,-0.198
6,RRIRARPPRLPRPRPRPEPIPRP,0.716
7,RRIRTRPPRLPRPRPRPNDPPRP,-0.149
8,RRIRDRPPRLPRPRPRPTQSPRP,0.439
9,RRIRIRPPRLPRPRPRPISLPRP,-0.129
10,RRIRCRPPRLPRPRPRPWACPRP,-0.0929
11,RRIRKRPPRLPRPRPRPTKFPRP,0.663
12,RRIRRRPPRLPRPRPRPLSQPRP,0.000673
13,RRIRERPPRLPRPRPRPLNQPRP,-0.547
14,RRIRNRPPRLPRPRPRPVYHPRP,-0.0311
15,RRIRARPPRLPRPRPRPAVWPRP,0.64
16,RRIRPRPPRLPRPRPRPHLAPRP,0.0568
17,RRIRNRPPRLPRPRPRPKGVPRP,2.97
18,RRIRHRPPRLPRPRPRPPIIPRP,-0.183
19,RRIRCRPPRLPRPRPRPGSFPRP,-0.22
20,RRIRIRPPRLPRPRPRPVFSPRP,-0.626
21,RRIRYRPPRLPRPRPRPHRQPRP,-0.0423
22,RRIRPRPPRLPRPRPRPYFWPRP,-0.137
23,RRIRERPPRLPRPRPRPCYWPRP,-0.361
24,RRIRERPPRLPRPRPRPAEAPRP,-0.0209
25,RRIRRRPPRLPRPRPRPNMSPRP,2.14

row,Sequence,shrunken log2 fold change
1,RRIRDRPPRLPRPRPRPFLGPRP,-0.0161
2,RRIRIRPPRLPRPRPRPILCPRP,-0.0872
3,RRIRHRPPRLPRPRPRPAPCPRP,0.288
4,RRIRTRPPRLPRPRPRPVIEPRP,-0.408
5,RRIRIRPPRLPRPRPRPKTWPRP,-0.258
6,RRIRCRPPRLPRPRPRPWTMPRP,0.0153
7,RRIRGRPPRLPRPRPRPIANPRP,0.42
8,RRIRERPPRLPRPRPRPGNDPRP,-0.0081
9,RRIRMRPPRLPRPRPRPQHVPRP,0.0365
10,RRIRVRPPRLPRPRPRPQVFPRP,-0.0729
11,RRIRARPPRLPRPRPRPGDIPRP,-0.0868
12,RRIRWRPPRLPRPRPRPCFWPRP,0.213
13,RRIRPRPPRLPRPRPRPIIFPRP,-0.0799
14,RRIRIRPPRLPRPRPRPWRNPRP,-0.0466
15,RRIRKRPPRLPRPRPRPDLFPRP,0.529
16,RRIRARPPRLPRPRPRPIAFPRP,0.222
17,RRIRWRPPRLPRPRPRPDQMPRP,0.128
18,RRIRTRPPRLPRPRPRPWFLPRP,-0.401
19,RRIRTRPPRLPRPRPRPWNDPRP,-0.271
20,RRIRHRPPRLPRPRPRPKGFPRP,0.0595
21,RRIRFRPPRLPRPRPRPRVQPRP,0.263
22,RRIRRRPPRLPRPRPRPKTGPRP,0.1
23,RRIRDRPPRLPRPRPRPHGRPRP,0.0088
24,RRIRARPPRLPRPRPRPEMYPRP,0.151
25,RRIRTRPPRLPRPRPRPCLIPRP,-0.0324

row,Sequence,shrunken log2 fold change
1,RRIRIRPPRLPRPRPRPTMFPRP,-0.763
2,RRIRLRPPRLPRPRPRPVTNPRP,-0.0302
3,RRIRLRPPRLPRPRPRPQKYPRP,-0.442
4,RRIRHRPPRLPRPRPRPPWMPRP,0.197
5,RRIRSRPPRLPRPRPRPGNMPRP,-0.12
6,RRIRQRPPRLPRPRPRPSSCPRP,0.0394
7,RRIRKRPPRLPRPRPRPDSHPRP,-0.427
8,RRIRIRPPRLPRPRPRPTDQPRP,-0.51
9,RRIRNRPPRLPRPRPRPGQYPRP,0.0262
10,RRIRNRPPRLPRPRPRPKLLPRP,0.127
11,RRIRARPPRLPRPRPRPYMLPRP,-0.659
12,RRIRQRPPRLPRPRPRPCNTPRP,-0.257
13,RRIRNRPPRLPRPRPRPMGIPRP,-0.454
14,RRIRYRPPRLPRPRPRPRPIPRP,-0.0521
15,RRIRIRPPRLPRPRPRPRCIPRP,-0.44
16,RRIRCRPPRLPRPRPRPTWLPRP,-0.227
17,RRIRCRPPRLPRPRPRPGLNPRP,-0.0525
18,RRIRIRPPRLPRPRPRPAFVPRP,-0.0212
19,RRIRSRPPRLPRPRPRPYKFPRP,-0.15
20,RRIRIRPPRLPRPRPRPAVFPRP,0.103
21,RRIRQRPPRLPRPRPRPEICPRP,0.0414
22,RRIRERPPRLPRPRPRPSLMPRP,-0.459
23,RRIRSRPPRLPRPRPRPCRWPRP,0.0467
24,RRIRHRPPRLPRPRPRPAQKPRP,-0.0418
25,RRIRWRPPRLPRPRPRPWWPPRP,0.19
